Experiments:
[1] = biological target: PhGal4E_1 variant Y145F (Pyrococcus horikoshii); assay: crystal structure
[2] = biological target: T1, PhGal4E_1 (Pyrococcus horikoshii, UniProt O73960); assay: X-ray crystal structure, […] Å, crystal soaking; assay type: binding; settings: soaked 1-3 min with 10 mM GDP-L-Fuc; active site, NAD+ bound
T1 sequence (O73960 1-318): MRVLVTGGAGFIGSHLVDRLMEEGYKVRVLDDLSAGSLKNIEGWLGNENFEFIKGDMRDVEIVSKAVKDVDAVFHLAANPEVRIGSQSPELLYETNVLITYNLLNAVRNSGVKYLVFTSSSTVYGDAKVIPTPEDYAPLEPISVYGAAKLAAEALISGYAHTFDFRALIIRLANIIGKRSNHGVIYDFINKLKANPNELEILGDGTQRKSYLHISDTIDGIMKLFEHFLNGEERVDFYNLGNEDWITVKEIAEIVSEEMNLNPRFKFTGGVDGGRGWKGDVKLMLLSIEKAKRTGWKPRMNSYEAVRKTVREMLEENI

Row | stoichiometry N [1] | Compound | X-ray crystal structure, 2.4 Å, crystal soaking [2]
1 | 2 | PhGal4E_1 variant Y145F (enzyme) | –
2 | – | C[C@@H]1O[C@H](OP(=O)(O)OP(=O)(O)OC[C@H]2O[C@@H](n3cnc4c(=O)[nH]c(N)nc43)[C@H](O)[C@@H]2O)[C@@H](O)[C@H](O)[C@@H]1O [GDP-L-Fuc] | NAD^+ cofactor and GDP-L-Fuc bound in the active site of the WT (PDB ID: 8RDH
